Laboratory results from US20120316071A1 (published 2012).

How the values were obtained:
[1] = biological target: T1, Recombinant Human DLL4 (delta-like protein 4) (human, UniProt Q9NR61 27-524); test: ELISA on plate-coated DLL4, 100 nM Fab
T1 construct: Bought recombinant protein (R&D Systems Cat#1506-D4/CF); also called rHuman DLL4

[2] = biological target: T1, Recombinant Human DLL4 (delta-like …); test: ECL 96-well plate assay on immobilised DLL4, 10 nM Fab
[3] = biological target: T2, Recombinant Human DLL4 (delta-like protein 4) (human, UniProt Q9NR61 27-524); test: ELISA, DLL4-coated plate, 100 nM Fab
T2 construct: Bought recombinant human DLL4 (R&D Systems Cat#1506-D4/CF); also called rHuman DLL4

[4] = biological target: T2, Recombinant Human DLL4 (delta-like …); test: ECL (MSD) binding assay, immobilised DLL4, 10 nM Fab;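 further: fab binding read as electrochemiluminescence via a TAG-labelled detection antibody, 1 h incubations at 20 °C, antigen signal compared with each well's blank, ratio of at least 4 scored as binder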

| Binder | ELISA signal [1] | ECL signal [2] | ELISA Signal [100 nM Fab] [3] | ECL Signal [10 nM Fab] [4] |
| --- | --- | --- | --- | --- |
| Fab VH1-46_IGHD6-6*01_IGHJ1*01 S102A/S103P/S104F/H111F N52Q & L6_IGKJ1*01 (Fab, V domains shown, Fab from E. coli; CH1 (with His and Flag tags) and kappa CL come from the expression plasmids; also called APFF N52Q) VH: QVQLVQSGAEVKKPGASVKVSCKASGYTFTSYYMHWVRQAPGQGLEWMGIIQPSGGSTSYAQKFQGRVTMTRDTSTSTVYMELSSLRSEDTAVYYCAREEYAPFSAEYFQFWGQGTLVTVSS VL: not shown | 0.1 | 60600 | – | – |
| Fab VH1-46_IGHD6-6*01_IGHJ1*01 S102A/S103P/S104F/H111F G56S & L6_IGKJ1*01 (Fab, V domains shown, Fab from E. coli; CH1 (with His and Flag tags) and kappa CL come from the expression plasmids; also called APFF G56S) VH: QVQLVQSGAEVKKPGASVKVSCKASGYTFTSYYMHWVRQAPGQGLEWMGIINPSGSSTSYAQKFQGRVTMTRDTSTSTVYMELSSLRSEDTAVYYCAREEYAPFSAEYFQFWGQGTLVTVSS VL: not shown | 0.18 | 65700 | – | – |
| Fab VH1-46_IGHD6-6*01_IGHJ1*01 S102A/S103P/S104F/H111F N52T & L6_IGKJ1*01 (Fab, V domains shown, Fab from E. coli; CH1 (with His and Flag tags) and kappa CL come from the expression plasmids; also called APFF N52T) VH: QVQLVQSGAEVKKPGASVKVSCKASGYTFTSYYMHWVRQAPGQGLEWMGIITPSGGSTSYAQKFQGRVTMTRDTSTSTVYMELSSLRSEDTAVYYCAREEYAPFSAEYFQFWGQGTLVTVSS VL: not shown | 0.61 | 66800 | – | – |
| Fab VH1-46_IGHD6-6*01_IGHJ1*01 S102A/S103P/S104F/H111F N52G & L6_IGKJ1*01 (Fab, V domains shown, Fab from E. coli; CH1 (with His and Flag tags) and kappa CL come from the expression plasmids; also called APFF N52G) VH: QVQLVQSGAEVKKPGASVKVSCKASGYTFTSYYMHWVRQAPGQGLEWMGIIGPSGGSTSYAQKFQGRVTMTRDTSTSTVYMELSSLRSEDTAVYYCAREEYAPFSAEYFQFWGQGTLVTVSS VL: not shown | 0.47 | 55600 | – | – |
| Fab VH1-46_IGHD6-6*01_IGHJ1*01 S102A/S103P/S104F/H111F N52P & L6_IGKJ1*01 (Fab, V domains shown, Fab from E. coli; CH1 (with His and Flag tags) and kappa CL come from the expression plasmids; also called APFF N52P) VH: QVQLVQSGAEVKKPGASVKVSCKASGYTFTSYYMHWVRQAPGQGLEWMGIIPPSGGSTSYAQKFQGRVTMTRDTSTSTVYMELSSLRSEDTAVYYCAREEYAPFSAEYFQFWGQGTLVTVSS VL: not shown | 0.18 | 44800 | – | – |
| Fab VH1-46_IGHD6-6*01_IGHJ1*01 S102A/S103P/S104F/H111F N52S & L6_IGKJ1*01 (Fab, V domains shown, Fab from E. coli; CH1 (with His and Flag tags) and kappa CL come from the expression plasmids; also called APFF N52S) VH: QVQLVQSGAEVKKPGASVKVSCKASGYTFTSYYMHWVRQAPGQGLEWMGIISPSGGSTSYAQKFQGRVTMTRDTSTSTVYMELSSLRSEDTAVYYCAREEYAPFSAEYFQFWGQGTLVTVSS VL: not shown | 0.28 | 62200 | – | – |
| Fab VH5-51_IGHD5-18*01>3_IGHJ4*01 G100K/G104T & V3-4_IGLJ1*01 V91I (Fab, V domains shown, Fab; expressed with CH1 (His and Flag tags) and lambda CL from the expression plasmids; also called H:KT & V91I) VH: EVQLVQSGAEVKKPGESLKISCKGSGYSFTSYWIGWVRQMPGKGLEWMGIIYPGDSDTRYSPSFQGQVTISADKSISTAYLQWSSLKASDTAMYYCARRKYSYTYDYFDYWGQGTLVTVSS VL: QTVVTQEPSFSVSPGGTVTLTCGLSSGSVSTSYYPSWYQQTPGQAPRTLIYSTNTRSSGVPDRFSGSILGNKAALTITGAQADDESDYYCILYMGSGISYVFGTGTKVTVL | – | – | 0.01 | 51200 |
| Fab VH5-51_IGHD5-18*01>3_IGHJ4*01 G100K/G104T & V3-4_IGLJ1*01 V91L (Fab, V domains shown, Fab; expressed with CH1 (His and Flag tags) and lambda CL from the expression plasmids; also called H:KT & V91L) VH: EVQLVQSGAEVKKPGESLKISCKGSGYSFTSYWIGWVRQMPGKGLEWMGIIYPGDSDTRYSPSFQGQVTISADKSISTAYLQWSSLKASDTAMYYCARRKYSYTYDYFDYWGQGTLVTVSS VL: QTVVTQEPSFSVSPGGTVTLTCGLSSGSVSTSYYPSWYQQTPGQAPRTLIYSTNTRSSGVPDRFSGSILGNKAALTITGAQADDESDYYCLLYMGSGISYVFGTGTKVTVL | – | – | 0.02 | 41600 |
| Fab VH5-51_IGHD5-18*01>3_IGHJ4*01 G100K/G104T & V3-4_IGLJ1*01 V91W (Fab, V domains shown, Fab; expressed with CH1 (His and Flag tags) and lambda CL from the expression plasmids; also called H:KT & V91W) VH: EVQLVQSGAEVKKPGESLKISCKGSGYSFTSYWIGWVRQMPGKGLEWMGIIYPGDSDTRYSPSFQGQVTISADKSISTAYLQWSSLKASDTAMYYCARRKYSYTYDYFDYWGQGTLVTVSS VL: QTVVTQEPSFSVSPGGTVTLTCGLSSGSVSTSYYPSWYQQTPGQAPRTLIYSTNTRSSGVPDRFSGSILGNKAALTITGAQADDESDYYCWLYMGSGISYVFGTGTKVTVL | – | – | 0 | 12500 |
| Fab VH5-51_IGHD5-18*01>3_IGHJ4*01 G100K/G104T & V3-4_IGLJ1*01 V91T (Fab, V domains shown, Fab; expressed with CH1 (His and Flag tags) and lambda CL from the expression plasmids; also called H:KT & V91T) VH: EVQLVQSGAEVKKPGESLKISCKGSGYSFTSYWIGWVRQMPGKGLEWMGIIYPGDSDTRYSPSFQGQVTISADKSISTAYLQWSSLKASDTAMYYCARRKYSYTYDYFDYWGQGTLVTVSS VL: QTVVTQEPSFSVSPGGTVTLTCGLSSGSVSTSYYPSWYQQTPGQAPRTLIYSTNTRSSGVPDRFSGSILGNKAALTITGAQADDESDYYCTLYMGSGISYVFGTGTKVTVL | – | – | 0.01 | 32700 |
| Fab VH5-51_IGHD5-18*01>3_IGHJ4*01 G100K/G104T & V3-4_IGLJ1*01 V91S (Fab, V domains shown, Fab; expressed with CH1 (His and Flag tags) and lambda CL from the expression plasmids; also called H:KT & V91S) VH: EVQLVQSGAEVKKPGESLKISCKGSGYSFTSYWIGWVRQMPGKGLEWMGIIYPGDSDTRYSPSFQGQVTISADKSISTAYLQWSSLKASDTAMYYCARRKYSYTYDYFDYWGQGTLVTVSS VL: QTVVTQEPSFSVSPGGTVTLTCGLSSGSVSTSYYPSWYQQTPGQAPRTLIYSTNTRSSGVPDRFSGSILGNKAALTITGAQADDESDYYCSLYMGSGISYVFGTGTKVTVL | – | – | 0.01 | 32100 |
| Fab VH5-51_IGHD5-18*01>3_IGHJ4*01 G100K/G104T & V3-4_IGLJ1*01 V91R (Fab, V domains shown, Fab; expressed with CH1 (His and Flag tags) and lambda CL from the expression plasmids; also called H:KT & V91R) VH: EVQLVQSGAEVKKPGESLKISCKGSGYSFTSYWIGWVRQMPGKGLEWMGIIYPGDSDTRYSPSFQGQVTISADKSISTAYLQWSSLKASDTAMYYCARRKYSYTYDYFDYWGQGTLVTVSS VL: QTVVTQEPSFSVSPGGTVTLTCGLSSGSVSTSYYPSWYQQTPGQAPRTLIYSTNTRSSGVPDRFSGSILGNKAALTITGAQADDESDYYCRLYMGSGISYVFGTGTKVTVL | – | – | 0 | 13400 |
| Fab VH5-51_IGHD5-18*01>3_IGHJ4*01 G100K/G104T & V3-4_IGLJ1*01 V91N (Fab, V domains shown, Fab; expressed with CH1 (His and Flag tags) and lambda CL from the expression plasmids; also called H:KT & V91N) VH: EVQLVQSGAEVKKPGESLKISCKGSGYSFTSYWIGWVRQMPGKGLEWMGIIYPGDSDTRYSPSFQGQVTISADKSISTAYLQWSSLKASDTAMYYCARRKYSYTYDYFDYWGQGTLVTVSS VL: QTVVTQEPSFSVSPGGTVTLTCGLSSGSVSTSYYPSWYQQTPGQAPRTLIYSTNTRSSGVPDRFSGSILGNKAALTITGAQADDESDYYCNLYMGSGISYVFGTGTKVTVL | – | – | 0 | 46700 |
